The subject of the series is Escherichia coli TOP10. Briefly: shrunken log2 fold change of peptide-encoding DNA abundance (4.5 h post-induction vs induction); higher = less antimicrobial activity (less host growth inhibition). As to conditions: time post-induction: 4.5 h; library: site-saturation at positions 5, 18, 19, 20.
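Further: peptides expressed intracellularly from a pBAD plasmid library in pooled LB shake-flask culture, induced with 0.3% L-arabinose, DNA abundance read by NGS, three biological replicates, DESeq2 with apeglm shrinkage.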

As for RRIRHRPPRLPRPRPRPTLLPRP, the “shrunken log2 fold change” value was -0.281.

With RRIRCRPPRLPRPRPRPHIWPRP, the “shrunken log2 fold change” value was -0.6.

As for RRIRCRPPRLPRPRPRPQKAPRP, the “shrunken log2 fold change” value turned out to be 0.265.

RRIRSRPPRLPRPRPRPFERPRP: the “shrunken log2 fold change” value is -0.00192.

On to RRIRRRPPRLPRPRPRPVWCPRP, for which the “shrunken log2 fold change” value amounted to 0.273. As to RRIRHRPPRLPRPRPRPGYAPRP, the “shrunken log2 fold change” value is -0.163. For RRIRQRPPRLPRPRPRPRPQPRP the value was 0.262. In the case of RRIRMRPPRLPRPRPRPGQKPRP it was 0.142; in that of RRIRMRPPRLPRPRPRPQTIPRP, 0.414. With RRIRTRPPRLPRPRPRPDKYPRP, the “shrunken log2 fold change” value was -0.147. For RRIRNRPPRLPRPRPRPMNFPRP the value was -0.0203; for RRIRCRPPRLPRPRPRPVETPRP, 0.0672.

For RRIRSRPPRLPRPRPRPLEAPRP, the “shrunken log2 fold change” value was found to be 0.177. For RRIRERPPRLPRPRPRPYTPPRP the value was -1. RRIRSRPPRLPRPRPRPENRPRP: the “shrunken log2 fold change” value is -0.114. For RRIRERPPRLPRPRPRPIHSPRP the value was -1.52. For RRIRIRPPRLPRPRPRPAMYPRP the value was -0.733; for RRIRGRPPRLPRPRPRPMHNPRP, 0.383; for RRIRERPPRLPRPRPRPKVIPRP, -0.0206. For RRIRMRPPRLPRPRPRPTWAPRP the value was 0.192.

Regarding RRIRNRPPRLPRPRPRPCRVPRP, the “shrunken log2 fold change” value is -0.0128. With RRIRWRPPRLPRPRPRPEKLPRP, the “shrunken log2 fold change” value is 0.225.

In the case of RRIRNRPPRLPRPRPRPQYAPRP, the “shrunken log2 fold change” value is -0.0234. For RRIRWRPPRLPRPRPRPCMFPRP the value was -0.244; for RRIRDRPPRLPRPRPRPFFCPRP, 0.55. In the case of RRIRKRPPRLPRPRPRPLCHPRP, the “shrunken log2 fold change” value is 0.252. In the case of RRIRIRPPRLPRPRPRPRVYPRP it was 0.00283; in that of RRIRDRPPRLPRPRPRPRYIPRP, -0.356; in that of RRIRCRPPRLPRPRPRPNARPRP, 0.00577. Regarding RRIRARPPRLPRPRPRPGKQPRP, the “shrunken log2 fold change” value is 0.292.

Consider RRIRKRPPRLPRPRPRPECEPRP, for which the “shrunken log2 fold change” value was 0.0869. With RRIRHRPPRLPRPRPRPTVGPRP, the “shrunken log2 fold change” value was 0.0689.

Take RRIRCRPPRLPRPRPRPHVYPRP: the “shrunken log2 fold change” value was -0.899. As for RRIRMRPPRLPRPRPRPCWQPRP, the “shrunken log2 fold change” value turned out to be 0.0757. For RRIRCRPPRLPRPRPRPFHWPRP the value was -0.195; for RRIRARPPRLPRPRPRPDKRPRP, 0.109. For RRIRPRPPRLPRPRPRPIHKPRP the value was -0.561; for RRIRLRPPRLPRPRPRPQVGPRP, -0.203. For the sequence RRIRNRPPRLPRPRPRPFGIPRP, the “shrunken log2 fold change” value is -0.0138.

Consider RRIRQRPPRLPRPRPRPHDHPRP, for which the “shrunken log2 fold change” value is -0.0539. Consider RRIRYRPPRLPRPRPRPTEYPRP, for which the “shrunken log2 fold change” value was -0.204.

For the sequence RRIRFRPPRLPRPRPRPKAYPRP, the “shrunken log2 fold change” value was -0.436. In the case of RRIRRRPPRLPRPRPRPMNSPRP it was -0.101.

On to RRIRRRPPRLPRPRPRPKYSPRP, for which the “shrunken log2 fold change” value is -0.124. For RRIRKRPPRLPRPRPRPNRDPRP the value was 0.169; for RRIRYRPPRLPRPRPRPPRKPRP, 0.319. For RRIRDRPPRLPRPRPRPTKQPRP the value was 0.188. Take RRIRSRPPRLPRPRPRPHSQPRP: the “shrunken log2 fold change” value was found to be 0.0681. Turning to RRIRERPPRLPRPRPRPEYIPRP, the “shrunken log2 fold change” value is -0.177. Consider RRIRNRPPRLPRPRPRPYQMPRP, for which the “shrunken log2 fold change” value was -0.246. In the case of RRIRKRPPRLPRPRPRPQVGPRP it was 0.0646; in that of RRIRVRPPRLPRPRPRPMKFPRP, -0.124. In the case of RRIRWRPPRLPRPRPRPWMWPRP, the “shrunken log2 fold change” value is 0.0359. In the case of RRIRRRPPRLPRPRPRPSCQPRP it was -0.0699; in that of RRIRFRPPRLPRPRPRPCDFPRP, -0.255. In the case of RRIRFRPPRLPRPRPRPQHMPRP it was -0.615. In the case of RRIRSRPPRLPRPRPRPLNTPRP it was -0.563. For the sequence RRIRIRPPRLPRPRPRPASLPRP, the “shrunken log2 fold change” value is -0.0288. Turning to RRIRRRPPRLPRPRPRPTVIPRP, the “shrunken log2 fold change” value is -0.168. For RRIRTRPPRLPRPRPRPDEKPRP the value was 0.0325; for RRIRDRPPRLPRPRPRPIGFPRP, 0.0229; for RRIRQRPPRLPRPRPRPVMPPRP, 0.0623.

As to RRIRRRPPRLPRPRPRPTALPRP, the “shrunken log2 fold change” value stood at 0.554.

On to RRIRIRPPRLPRPRPRPEMSPRP, for which the “shrunken log2 fold change” value is -0.0264. In the case of RRIRPRPPRLPRPRPRPWNQPRP it was -0.759; in that of RRIRKRPPRLPRPRPRPRSIPRP, 0.176. In the case of RRIRHRPPRLPRPRPRPWKYPRP it was -0.253; in that of RRIRSRPPRLPRPRPRPMYKPRP, -1.13. As to RRIRTRPPRLPRPRPRPKSDPRP, the “shrunken log2 fold change” value was -0.146. In the case of RRIRARPPRLPRPRPRPRHYPRP it was -0.158.

As to RRIRTRPPRLPRPRPRPDVVPRP, the “shrunken log2 fold change” value was -0.106.

Regarding RRIRRRPPRLPRPRPRPCNAPRP, the “shrunken log2 fold change” value was -0.105. For RRIRDRPPRLPRPRPRPDMRPRP the value was 0.0382; for RRIRRRPPRLPRPRPRPMCHPRP, -0.191. Regarding RRIRWRPPRLPRPRPRPTTTPRP, the “shrunken log2 fold change” value turned out to be 0.567. With RRIRLRPPRLPRPRPRPCEVPRP, the “shrunken log2 fold change” value turned out to be 0.0632. For RRIRMRPPRLPRPRPRPVNDPRP the value was -0.00185; for RRIRDRPPRLPRPRPRPPSVPRP, 0.258; for RRIRKRPPRLPRPRPRPYVDPRP, -0.24. For RRIRDRPPRLPRPRPRPMLGPRP the value was 0.015.

For RRIRFRPPRLPRPRPRPIPEPRP, the “shrunken log2 fold change” value is 0.236. In the case of RRIRQRPPRLPRPRPRPFCIPRP, the “shrunken log2 fold change” value was -0.641.

For RRIRPRPPRLPRPRPRPSRRPRP, the “shrunken log2 fold change” value was -0.179. In the case of RRIRSRPPRLPRPRPRPAEMPRP it was 0.125; in that of RRIRERPPRLPRPRPRPISYPRP, -0.0746. In the case of RRIRSRPPRLPRPRPRPEIWPRP it was 0.456; in that of RRIRARPPRLPRPRPRPQWGPRP, 0.315.

On to RRIRIRPPRLPRPRPRPTFHPRP, for which the “shrunken log2 fold change” value is -0.266. In the case of RRIRHRPPRLPRPRPRPYKCPRP, the “shrunken log2 fold change” value is -0.0105. In the case of RRIRHRPPRLPRPRPRPISNPRP it was -0.779. Take RRIRNRPPRLPRPRPRPTDGPRP: the “shrunken log2 fold change” value was -0.113. With RRIRDRPPRLPRPRPRPNCQPRP, the “shrunken log2 fold change” value is 0.156. For RRIRDRPPRLPRPRPRPDLKPRP the value was 0.169. In the case of RRIRGRPPRLPRPRPRPPRHPRP it was 0.818; in that of RRIRGRPPRLPRPRPRPNCYPRP, 0.183; in that of RRIRFRPPRLPRPRPRPHTHPRP, -0.618.

With RRIRLRPPRLPRPRPRPMWVPRP, the “shrunken log2 fold change” value was -0.314. For RRIRDRPPRLPRPRPRPLTCPRP the value was 0.254. For RRIRYRPPRLPRPRPRPKQRPRP the value was -0.106; for RRIRWRPPRLPRPRPRPMVFPRP, 0.274.

Take RRIRRRPPRLPRPRPRPFHHPRP: the “shrunken log2 fold change” value was -0.0883.

As to RRIRCRPPRLPRPRPRPVQHPRP, the “shrunken log2 fold change” value is -0.0893. For RRIRARPPRLPRPRPRPQISPRP the value was -0.051; for RRIRHRPPRLPRPRPRPGLKPRP, 0.182. For RRIRCRPPRLPRPRPRPCNWPRP the value was -0.141; for RRIRERPPRLPRPRPRPAVAPRP, 0.0153.

For RRIRKRPPRLPRPRPRPVPCPRP, the “shrunken log2 fold change” value was found to be 0.0663. Regarding RRIRNRPPRLPRPRPRPNHAPRP, the “shrunken log2 fold change” value was -0.0192. For the sequence RRIRLRPPRLPRPRPRPQMRPRP, the “shrunken log2 fold change” value worked out at 0.64. For RRIRSRPPRLPRPRPRPRMFPRP the value was -0.121.

Take RRIRGRPPRLPRPRPRPMVEPRP: the “shrunken log2 fold change” value is 0.446. In the case of RRIRIRPPRLPRPRPRPAYHPRP it was -0.639. For RRIRVRPPRLPRPRPRPKIWPRP the value was 0.0958; for RRIRWRPPRLPRPRPRPTYDPRP, 1.48; for RRIRCRPPRLPRPRPRPDCKPRP, -0.392. For RRIRGRPPRLPRPRPRPDAIPRP the value was 1.38; for RRIRWRPPRLPRPRPRPNSVPRP, -0.325. As to RRIRYRPPRLPRPRPRPDRGPRP, the “shrunken log2 fold change” value is -0.213. For RRIRFRPPRLPRPRPRPMNQPRP the value was -0.528; for RRIRERPPRLPRPRPRPSADPRP, -0.625; for RRIRERPPRLPRPRPRPIEIPRP, -0.186. For RRIRWRPPRLPRPRPRPMAHPRP the value was 0.0444; for RRIRLRPPRLPRPRPRPVICPRP, -0.16; for RRIRKRPPRLPRPRPRPHHMPRP, -0.0738. With RRIRGRPPRLPRPRPRPAFCPRP, the “shrunken log2 fold change” value worked out at 0.731.

Values taken from the supplement of paper PMC9112550, “Optimization of the antimicrobial peptide Bac7 by deep mutational scanning” (BMC Biology, 2022).
